Laboratory results reported in PMC8219681, “Inhibition of MRN activity by a telomere protein motif” (Nature Communications, 2021).
Residue numbers refer to the chain shown, from its start. In names and notes the source's numbering stands. Blank lines part the entries; values can stand above or below the binder they belong to.

Assays:
[1] = target: T1, Rad50 (S. cerevisiae, FLAG-tagged at the C terminus) (S. cerevisiae, UniProt P12753 1-1312); assay: pull-down; MBP-Rif2 or MBP-Rif2-min (~5 ug, from Sf9 lysate) immobilised on amylose resin and washed; 1 ug Mre11, 500 ng Rad50 or 1 ug Xrs2 added for 1 h in 50 mM Tris-HCl pH 7.5, 200 mM NaCl, 0.2% NP40, 2 mM EDTA; eluted with 20 mM maltose; Western blot; details: both partners purified
T1 construct: Rad50, Saccharomyces cerevisiae
T1 sequence (looked up): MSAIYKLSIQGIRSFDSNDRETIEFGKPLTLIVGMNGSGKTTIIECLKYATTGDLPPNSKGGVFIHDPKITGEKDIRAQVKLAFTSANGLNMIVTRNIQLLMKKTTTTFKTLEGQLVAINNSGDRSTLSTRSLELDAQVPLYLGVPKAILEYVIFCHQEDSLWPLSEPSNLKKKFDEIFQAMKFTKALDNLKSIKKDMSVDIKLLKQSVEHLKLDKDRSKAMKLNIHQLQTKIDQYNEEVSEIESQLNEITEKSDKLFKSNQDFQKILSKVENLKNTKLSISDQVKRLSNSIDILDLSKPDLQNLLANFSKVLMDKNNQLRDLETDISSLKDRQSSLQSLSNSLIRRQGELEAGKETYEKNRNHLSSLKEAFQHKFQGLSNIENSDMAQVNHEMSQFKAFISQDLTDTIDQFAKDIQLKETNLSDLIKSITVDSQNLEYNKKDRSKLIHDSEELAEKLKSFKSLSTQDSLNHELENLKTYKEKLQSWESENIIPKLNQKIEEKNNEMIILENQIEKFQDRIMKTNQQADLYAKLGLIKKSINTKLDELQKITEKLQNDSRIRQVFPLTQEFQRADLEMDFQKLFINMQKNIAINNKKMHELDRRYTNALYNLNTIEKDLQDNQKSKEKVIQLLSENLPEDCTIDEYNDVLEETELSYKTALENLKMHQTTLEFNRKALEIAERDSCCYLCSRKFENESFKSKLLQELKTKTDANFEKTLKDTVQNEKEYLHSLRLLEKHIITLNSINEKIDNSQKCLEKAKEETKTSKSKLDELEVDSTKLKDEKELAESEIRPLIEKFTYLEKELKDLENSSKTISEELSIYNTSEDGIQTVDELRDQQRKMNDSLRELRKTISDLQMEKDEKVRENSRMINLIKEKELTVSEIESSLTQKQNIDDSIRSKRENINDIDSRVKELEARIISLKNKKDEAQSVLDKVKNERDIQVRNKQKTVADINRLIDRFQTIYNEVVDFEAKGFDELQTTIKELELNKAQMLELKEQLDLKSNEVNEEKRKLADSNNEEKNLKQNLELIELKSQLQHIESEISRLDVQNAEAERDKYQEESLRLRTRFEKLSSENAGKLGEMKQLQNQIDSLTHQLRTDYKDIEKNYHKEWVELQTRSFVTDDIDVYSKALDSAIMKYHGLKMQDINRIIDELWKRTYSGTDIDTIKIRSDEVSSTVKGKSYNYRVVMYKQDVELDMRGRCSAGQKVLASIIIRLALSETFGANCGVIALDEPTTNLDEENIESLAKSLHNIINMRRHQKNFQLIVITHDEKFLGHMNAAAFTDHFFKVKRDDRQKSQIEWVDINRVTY

[2] = target: T2, Mre11 (S. cerevisiae, his-tagged at the C terminus) (S. cerevisiae, UniProt P32829 1-692); assay: as above; details: both partners purified
T2 construct: Mre11, Saccharomyces cerevisiae; also called Mre11-his; not shown: His tag, C-terminal, kept
T2 sequence (looked up): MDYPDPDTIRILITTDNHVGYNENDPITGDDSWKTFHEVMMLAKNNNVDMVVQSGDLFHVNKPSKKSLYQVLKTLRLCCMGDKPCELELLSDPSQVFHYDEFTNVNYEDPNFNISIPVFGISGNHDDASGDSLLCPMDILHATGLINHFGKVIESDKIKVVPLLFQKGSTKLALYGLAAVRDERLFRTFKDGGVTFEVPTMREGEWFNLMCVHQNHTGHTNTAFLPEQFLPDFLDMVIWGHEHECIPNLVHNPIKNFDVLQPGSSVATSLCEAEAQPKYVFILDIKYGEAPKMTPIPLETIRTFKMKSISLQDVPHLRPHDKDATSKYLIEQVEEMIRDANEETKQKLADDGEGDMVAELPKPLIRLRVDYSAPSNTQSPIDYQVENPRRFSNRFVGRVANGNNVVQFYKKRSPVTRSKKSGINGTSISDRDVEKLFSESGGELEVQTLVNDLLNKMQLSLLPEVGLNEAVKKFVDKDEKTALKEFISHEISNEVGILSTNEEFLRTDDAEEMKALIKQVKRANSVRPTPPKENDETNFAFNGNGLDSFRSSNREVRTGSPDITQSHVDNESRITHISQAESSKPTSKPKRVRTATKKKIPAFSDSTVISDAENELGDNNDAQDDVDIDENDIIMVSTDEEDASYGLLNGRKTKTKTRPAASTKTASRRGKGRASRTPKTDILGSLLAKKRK

binding result [1]: binds | binding result [2]: binds
B1: MBP-Rif2 (S. cerevisiae Rif2, wild type) (natural protein, UniProt Q06208 1-395, looked up)
chain: MEHVDSDFAPIRRSKKVVDSDKIVKAISDDLEQKNFTVLRKLNLVPIKKSVSSPKVCKPSPVKERVDHVFYQKFKSMALQELGTNYLSISYVPSLSKFLSKNLRSMKNCIVFFDKVEHIHQYAGIDRAVSETLSLVDINVVIIEMNDYLMKEGIQSSKSKECIESMGQASYSGQLDFEASEKPSNHTSDLMMMVMRKINNDESIDHIVYFKFEQLDKLSTSTIIEPSKLTEFINVLSVLEKSNNIAFKVLIYSNNVSISSLLSTSLKKKLNTKYTVFEMPILTCAQEQEYLKKMIKFTFDSGSKLLQSYNSLVTCQLNNKESNLAIFFEFLKVFPHPFTYLFNAYTEIIVQSRTFDELLDKIRNRLTIKNYPHSAYNFKKNQRLPLKLTRKVHDR
notes: Rif2, Saccharomyces cerevisiae, full length, expressed from the vector pFB-MBP-Rif2-his; MBP was cleaved with PreScission protease only after elution from the resin; N-terminal place of MBP is read from the construct's name MBP-Rif2-his; also called ScRif2; not shown: MBP, N-terminal, kept

binding result [1]: binds | binding result [2]: binds
B2: MBP-Rif2-min (S. cerevisiae Rif2 F8E P10N) (natural protein, UniProt Q06208 1-395, looked up)
chain: B1 chain with F8E, P10N
notes: Rif2, Saccharomyces cerevisiae, full length, F8E P10N, expressed from the vector pFB-MBP-Rif2-min-his; MBP was cleaved with PreScission protease only after elution from the resin; N-terminal place of MBP is read from the construct's name; also called mutant Rif2; not shown: MBP, N-terminal, kept
